One may read the stoichiometry N as a count of units in the complex or per binding partner.

From article PMC8011978 come the findings set out here.

In experiment [1] the target is LAdV-2 penton base protein (lizard atadenovirus LAdV-2). Briefly: cryo-EM structure.
Experiment [2] addresses LAdV-2 protein LH3 (lizard atadenovirus LAdV-2). Briefly: cryo-EM structure.

On to “LAdV-2 penton base protein (natural protein)”, for which, in experiment [1], the stoichiometry N is 5. Consider LAdV-2 protein LH3 (natural protein), for which the stoichiometry N in experiment [2] came out at 3.
